Substrate in this data set: C[C@H]1O[C@@H](O[C@H]2[C@@H](O)C[C@H](O[C@H]3[C@@H](O)C[C@H](O[C@H]4CC[C@@]5(C)[C@H](CC[C@@H]6[C@@H]5C[C@@H](O)[C@]5(C)[C@@H](C7=CC(=O)OC7)CC[C@]65O)C4)O[C@@H]3C)O[C@@H]2C)C[C@H](O)[C@@H]1O
As to the kind of experiment: cells, lysate or membranes named.

Description: TP_TRANSPORTER: uptake in Oatp2-expressing LLC-PK1 cells

B1: Solute carrier organic anion transporter family member 1A4 (Rattus norvegicus) (protein)
chain: MGKSEKRVATHGVRCFAKIKMFLLALTCAYVSKSLSGTYMNSMLTQIERQFGIPTSIVGLINGSFEIGNLLLIIFVSYFGTKLHRPIMIGVGCAVMGLGCFLISLPHFLMGQYEYETILPTSNVSSNSFFCVENRSQTLNPTQDPSECVKEMKSLMWIYVLVGNIIRGIGETPIMPLGISYIEDFAKSENSPLYIGILETGMTIGPLIGLLLASSCANIYVDIESVNTDDLTITPTDTRWVGAWWIGFLVCAGVNILTSFPFFFFPKTLPKEGLQENVDGTENAKEKKHRKKAKEEKRGITKDFFVFMKSLSCNPIYMLFILISVLQFNAFINSFTFMPKYLEQQYGKSTAEVVFLMGLYMLPPICLGYLIGGLIMKKFKVTVKKAAHLAFWLCLSEYLLSFLSYVMTCDNFPVAGLTTSYEGVQHQLYVENKVLADCNTRCNCSTNTWDPVCGDNGLAYMSACLAGCEKSVGTGTNMVFQNCSCIQSSGNSSAVLGLCNKGPDCANKLQYFLIIAIFGCFIYSLAGIPGYMVLLRCIKSEEKSLGVGLHAFCIRILAGIPAPIYFGALIDRTCLHWGTLKCGEPGACRMYDINSFRRLYLGLPAALRGASFVPAFFILRLTRTFQFPGDIESSKTDHAEMKLTLKESECTEVLRSKVTED
Regarding B1, the Km was found to be 1.07 µM.

Values taken from ChEMBL document CHEMBL2074013, “Effect of 17 beta-estradiol-D-17 beta-glucuronide on the rat organic anion transporting polypeptide 2-mediated transport differs depending on substrates” (Drug Metab Dispos, 2002).
